Test: soluble on expression in E. coli; label from the status in PepcDB or PDB records

Row | Sequence | soluble on expression in E. coli
1 | MNLPQNIRYRRYQDWTEEEIKSIKTNVALSPWHTTYHIEPKTGLLNDPNGFSYFNGKFNLFYQNWPFGAAHGLKSWIHTESEDLVHFKETGTVLYPDTSHDSHGAYSGSAYEIGDQLFLFYTGNVRDENWVRHPLQIGAFMDKKGNIQKFTDVLIKQPNDVTEHFRDPQIFNYKGQFYAIVGAQSLDKKGFIKLYKAVDNDIKNWQEVGNLDFGGSKSEYMIECPNLVFINEQPVLIYSPQGLSKSELDYHNIYPNTYKVCQSFDTEKPALVDASEIQNLDFGFECYATQAFNAPDGRVYAVSWIGLPDIDYPSDSYDYQGALSLVKELSLKHGKLYQYPVEAVRSLRSEKEAVTYKPETNNTYELELTFDSSSVNELLLFADNKGNGLAITVDTKMGTILIDRSKAGEQYALEFGSQRSCSIQAKETVVNIFVDKSIFEIFINKGEKVFTGRVFPNDKQTGIVIKSGKPSGNYYELKYLEHHHHHH | soluble
2 | MNLSFKINSMYICVHNMDRAINFYENLFNCKVTGKDEIYSVFDINGFRYGLFANKKTGEKKIWGNNCLPSFQVNDIDLILEKLKELNCPIVFPLTNIGKNKVLEFTDCEGNAIEITSPIKLEHHHHHH | not soluble
3 | MNMANVKIKIRDGLIDRLRNMSGITSDEAFARTIGTSRSTLVDVKTGEREPSLAFAIGIAQAFGLGLSEIVTWETETTAA | not soluble
4 | MNMPLMIDLTNKNVVIVGGGVVASRRAQTLNQYVEHMTVISPTITEKLQNMVDNGVVIWKEKEFEPSDIVDAYLVIAATNEPRVNEAVKKALPEHALFNNVGDASNGNVVFPSALHRDKLTISVSTDGASPKLTKSIMAELEALYPPSYSSYIDFLYTCRQKIKVLDITYNEKQQLLSQIVSQEYLNHDKQAQFLAWLDVR | not soluble
5 | MNMTKNAFQFGIEPVRITDTDNIQVNEGLPTNADPQVYALQLAKTVKAMLNGVLKDAQDNIPFPVEVLPTRNSLPTPIIAHTLADRSVLVPVRGGKRPEVVTAPSGTEITVEPIEQAILVSHQTKLWDQKSTTGFTQGTLQQDALNICDNVIRTINSKMVDVLESSKLLKTVELPALTGSLTAKADAIMDALYENTESSFGSEVSDYGIIAHESHLKALSRLAAKQGFGGEDAIVDMLGTDVAYYNGEDRGVFMMAKRFTALSFGCFRHDGESITVVLSRDGDSQSHDLEILGKVFVVAEAATTIKMGTGSATAVLPVVKRLSFTKEAN | not soluble
6 | MNMYSMPGYFQNMPTIGKELVNPNPENEQEIKAVESDIHESIKKALDAGITSEEKLNERGQLSAMQRINALIDPGTWCPLNSLFNPENNKFGTTNIVNGLGRVDGKWVYIVASDNKKMAGAWVPGQAENLIRCSDAAKMMHLPLIYLLNCSGVEFPNQDKVYPNRRGGGTPFFRNSELNQLGIPVIVGIYGTNPAGGGYHSISPTILIAHQDANMAVGGAGILSGMNPKGYIDDEAAEQIIAAQIENSKLKVPAPGSVPIHYDETGFFREVYQNDLGVIDGIKKYISYLPAYNLEFFRVDTPKAPQLPAEDLYSIIPMNQKRPYDIYEVIARLFDNSEFSEYKKGYGPEMVTGLAKVNGLLVGVIANVQGLLMNYPEYKQNSVGIGGKLYRQGLIKMNEFVTLCARDRIPLIWLQDTTGIDVGDEAEKAELLGLGQSLIYSIENSKLPSLEITIRKASAAAHYVLGGPQGNNTNVFSIGTGACEYYVMPGETAANAMYSRKLVKAKKAGEDLQPIIGKMNDMIQMYTDKSRPKYCTEKGMVDEIVDMTEVRPYIQAFTEAAYQNPQSICPMHQMLTPRSTREFETFGK | soluble
7 | MNNIWWQTKGQGNVHLVLLHGWGLNAEVWRCIDEELSSHFTLHLVDLPGFGRSRGFGALSLADMAEAVLQQAPDKAIWLGWSLGGLVASQIALTHPERVQALVTVASSPCFSARDEWPGIKPDVLAGFQQQLSDDFQRTVERFLALQTMGTETARQDARALKKTVLALPMPEVDVLNGGLEILKTVDLRQPLQNVSMPFLRLYGYLDGLVPRKVVPMLDKLWPHSESYIFAKAAHAPFISHPAEFCHLLVALKQRV | soluble
8 | MNNKLIYRSVRFATHNSQLLLPPLVLYRRILRQHKLLPGPQREMGDQYVRNEFKLHKDIDNPLHIVGFLASWQDYLHMISNGKWKDATLSSETLEKLSPEQTVQLYELMKETQKLHQDNEIESSKDVKRNNKD | not soluble
9 | MNNSIPERFIFQCALFKNLEREVFMTHGYVDSHIIDQALRLRLKDETSVILSDLYLQILQYIEMHKTTLTDIIINDRESVLSAAALEHHHHHH | not soluble
10 | MNPGGILMTTDIYFSHNNPHDPYAHHTTELNRDTHHLWVVLTTDSDDFDADSFTTEVIRITGYSRHEVNNGLNAMAAMTNLPHLRAIQERYYFLSIRYLASIMIAVAKADPTLWEELDLRITDALTPVTAGEVMIQSSTLSKRIAAWIKELDPEPTPEPIPKEDYVHVHTTDEATYVRIKISGPNRLILNDIITQLKDTDTEDSLPEALMAFLMEKIQLKITKYLFTPHKHPEQVWSPDYGDIGPEAYANATLVCAKDLDEVAGATEKSYTPSEKMKALIRARDGHCRFPGCCVPASKCQVDHIIPWAEGGPTAAWNLQLLCQRHHNMKTDGRFTADANGLAEIRWIGPMDVPAVTRPTGPLVKAMPRGIWGQVLRDRIQARFERIRVRALNKEDLEHHHHHH | not soluble
11 | MNPIPADVAAVVLAGGVGRRFGRPKALAMMDGISLVERAVEALSSGPADVYVSVSPALERPVARLVGSRRVIVDLVEQAPCEGPLRAFLTAASTLVSYSNLVFMPVDAPWASWRDLEPIYNASKAIGSGASYFSGEGIVHPLFLAARRKSLLTAAWTACWGRAEKRASAILRSLDPLILLGSSETRSPLALATVNTPQDLWRPSRVPAPAEGYILLEGHSILYKISSTMNSYYSALALEAEYKLYRRLGLLRLASHVLKDAAALNVSTSLIQQESMAGGLGLEHHHHHH | not soluble
12 | MNPIQHILDTYPLIVLDGAMATELERKGCNLNDSLWSAKILMEEPELIKQVHTDYFAAGADCAITASYQSTFEGFAARGLSEAEARRLIELSVSIAAEARDEFWSLEENRLNRPKPIIAASIGPYGAYLADGSEYRGNYAISEDELIEFHRPRMKALIEAGADVLACETIPCLTEAKAIVRLLKEFPETYAWISFSAKDGLHISDGTPAADCASWLDEHRQIAALGINCTPLQHIPSLIEELKKNTSKPIIVYPNSGEQYDPETKTWNGAACAESYGASARTWHEKGARLIGGCCRTKPENIQEIAAWARSLKTT | soluble
13 | MNPVAFIREKREGKKHRREDLEAFLLGYLRDEVPDYQVSAWLMAAFLRGLDPEETLWLTETMARSGKVLDLSGLPHPVDKHSSGGVGDKVSLVVGPILAASGCTFAKMSGRGLAHTGGTIDKLESVPGWRGEMTEAEFLERARRVGLVIAAQSPDLAPLDGKLYALRDVTATVESVPLIASSIMSKKLAAGARSIVLDVKVGRGAFMKTLEEARLLAKTMVAIGQGAGRRVRALLTSMEAPLGRAVGNAIEVREAIEALKGEGPGDLLEVALALAEEALRLEGLDPALARKALEGGAALEKFRAFLEAQGGDPRAVEDFSLLPLAEEHPLRAEREGVVREVDAYKVGLAVLALGGGRKRKGEPIDHGVGVYLLKKPGDRVERGEALALVYHRRRGLEEALGHLREAYALGEEAHPAPLVLEAI | soluble
14 | MNQELKLRPLEREDLKFVHELNNNAHIMSYWFEEPYEAFVELQDLYDKHIHDQSERRFIVEKDNEMVGLVELVEIDYIHRRTEFQIIIDPNYQGYGYAVEATRLAMDYAFAVLNMHKIYLVVDKENEKAVHVYKKVGFMVEGELIDEFFVDGNYHNAIRMCMFQKQYFENK | not soluble
15 | MNQKAVILDEQAIRRALTRIAHEMIERNKGMNNCILVGIKTRGIYLAKRLAERIEQIEGNPVTVGEIDITLYRDDLSKKTSNDEPLVKGADIPVDITDQKVILVDDVLYTGRTVRAGMDALVDVGRPSSIQLAVLVDRGHRELPIRADYIGKNIPTSKSEKVMVQLDEVDQNDLVAIYENE | soluble
16 | MNQLNGQQLNDIILVLQNFTHSTLKKDLISLNAFKKAELTCGILRIELSMPFVWQTGFEALQAEVEQQLKQITGASGVKWVLNYQIATLKRANNHPAVNGVKNIIAVTSGKGGVGKSTTSINLALALQAQGAKVGILDADIYGPSIPHMLGAQDQRPTSPDNRHITPIEAYGIQSNSIGYLMAEDNATIWRGPMASSALSQLLNETWWTDLDYLVIDMPPGTGDIQLTLSQQIPVTGAVVVTTPQDIALLDAIKGIAMFQKVAVPVLGVIENMSVHICQNCGHQEAIFGTGGASKVAEKYNTQLLGQLPLHIRLRQDLDAGTPTVVADPTHEISQAYLALAAKVAAELYWQGTVIPSEIMIREVK | not soluble
